Literature values in patent publication US11358994B2, “Fatty acid modified human epidermal growth factor” (Saint Louis University, priority 2017, dated 2022).

Conditions: species not stated

hEGF: 6 kD protein made of 53 amino acids (SEQ ID NO: 1)
half-life in vivo: ~2 min
